As usually defined, the IC50 is the concentration needed to halve the response being measured. A low value points to greater potency in that assay. A word on the Kd: it is a measure of binding affinity in units of concentration. Broadly, the EC50 is the midpoint of the concentration-response curve.

One series concerns the target T1, IL-1R1 (UniProt P14778 18-332, limits assumed).
T1 construct: also called IL-R1
T1 sequence (looked up): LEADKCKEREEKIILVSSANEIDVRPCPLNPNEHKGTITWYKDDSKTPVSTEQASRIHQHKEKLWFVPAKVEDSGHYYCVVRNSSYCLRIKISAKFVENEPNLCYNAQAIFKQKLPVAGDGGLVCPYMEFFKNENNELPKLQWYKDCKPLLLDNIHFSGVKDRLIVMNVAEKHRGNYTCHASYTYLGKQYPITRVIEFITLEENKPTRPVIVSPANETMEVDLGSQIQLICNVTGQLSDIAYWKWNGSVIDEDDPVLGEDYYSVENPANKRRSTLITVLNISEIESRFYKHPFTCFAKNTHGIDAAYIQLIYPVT
In words: Receptor Binding Assay, inhibition of IL-1 binding to IL-R1.

The target of series [1] is T2, recombinant human VEGF (human, UniProt P15692-4 27-191, limits assumed, biotinylated in the selections, phage ELISA and BIAcore screening).
T2 construct: also called hVEGF; VEGFA
T2 sequence (P15692 other isoform, or with tags, fused parts or gaps limits assumed): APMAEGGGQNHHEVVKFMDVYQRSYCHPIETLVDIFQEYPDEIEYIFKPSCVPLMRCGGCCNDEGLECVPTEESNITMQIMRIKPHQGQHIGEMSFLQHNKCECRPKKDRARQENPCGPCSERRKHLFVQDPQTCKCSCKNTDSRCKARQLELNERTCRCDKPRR
In words: BIAcore kinetics. Background: SPR reads the build-up and loss of mass on a sensor chip optically.

Series [2] addresses T2, recombinant human VEGF. In words: receptor binding assay.
The target of series [3] is T2, recombinant human VEGF. In words: RBA assay; taken as the Fc fusion of the row.
Series [4] concerns the molecule itself. In words: analytical ultracentrifugation, sedimentation velocity; monomer/dimer self-association.
Series [5] concerns the molecule itself. In words: analytical ultracentrifugation, sedimentation equilibrium; monomer/dimer self-association.
Series [6] deals with T3, TNFR1-FC fusion (human, UniProt P19438 30-211, limits assumed).
T3 construct: not shown: Fc part, captured by goat anti-human IgG; not described further
T3 sequence (looked up): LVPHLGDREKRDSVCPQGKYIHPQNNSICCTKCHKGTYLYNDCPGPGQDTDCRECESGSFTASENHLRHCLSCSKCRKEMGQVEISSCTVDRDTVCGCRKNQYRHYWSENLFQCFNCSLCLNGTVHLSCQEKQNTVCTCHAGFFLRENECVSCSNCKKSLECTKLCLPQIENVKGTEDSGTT
In words: TNFR1 receptor binding assay: TNFR1-Fc on beads, TNF-alpha 10 ng/ml, ABI 8200; average of 3 experiments.

Series [7] deals with T4, human TNFR1, soluble recombinant protein (human, UniProt P19438 22-211, limits assumed, biotinylated in the BIAcore assays (coupling via primary amines)).
T4 construct: also called biotinylated TNFR1; human recombinant E. coli-expressed human TNFR1
T4 sequence (looked up): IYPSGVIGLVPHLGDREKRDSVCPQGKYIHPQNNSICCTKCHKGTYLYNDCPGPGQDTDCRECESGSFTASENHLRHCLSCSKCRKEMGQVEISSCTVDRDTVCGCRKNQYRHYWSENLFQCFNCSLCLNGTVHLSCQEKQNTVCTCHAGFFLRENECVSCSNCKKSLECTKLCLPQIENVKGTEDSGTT
In words: BIAcore 3000, dAb over biotinylated human TNFR1 (1400 RU) on SA chip, 1:1 fit, 25 C, mean of 3 experiments.

For series [8], the target named is T3, TNFR1-FC fusion. In words: TNFR-1 receptor binding assay (RBA): inhibition of the binding of TNF-alpha to TNFR1 by the dAb; T0 sample.
Series [9] concerns the target T3, TNFR1-FC fusion. In words: TNFR-1 receptor binding assay (RBA): inhibition of the binding of TNF-alpha to TNFR1 by the dAb; sample after 14 days at 50 C in Britton-Robinson buffer, concentration assumed to be 1 mg/ml.
A further series has as its target T5, TNFR1 on MRC-5 cells (UniProt P19438 30-455, limits assumed).
T5 sequence (looked up): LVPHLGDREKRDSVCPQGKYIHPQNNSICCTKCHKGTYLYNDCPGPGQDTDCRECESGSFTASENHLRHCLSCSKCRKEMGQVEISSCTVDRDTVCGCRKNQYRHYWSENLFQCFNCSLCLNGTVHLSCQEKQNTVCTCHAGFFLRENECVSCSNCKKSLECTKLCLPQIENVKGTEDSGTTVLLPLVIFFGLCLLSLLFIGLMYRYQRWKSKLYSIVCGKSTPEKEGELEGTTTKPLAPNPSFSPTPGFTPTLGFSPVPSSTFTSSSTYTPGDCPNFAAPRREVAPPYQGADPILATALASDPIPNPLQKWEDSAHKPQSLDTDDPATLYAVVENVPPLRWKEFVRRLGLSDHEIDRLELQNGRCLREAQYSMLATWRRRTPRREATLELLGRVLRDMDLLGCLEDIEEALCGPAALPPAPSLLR
In words: cell-based or functional assay.

For series [10], the target named is T3, TNFR1-FC fusion. In words: human TNFR1 receptor binding assay; dAb blocks binding of TNF-alpha (10 ng/ml) to bead-captured TNFR1-Fc; four replicates.
Series [11] concerns the molecule itself. In words: analytical ultracentrifugation, sedimentation equilibrium; monomer/dimer self-association; self-association (monomer to dimer) of the dAb by AUC sedimentation equilibrium, 0.5 mg/ml to 5 mg/ml.
Series [12] deals with the molecule itself. In words: analytical ultracentrifugation, sedimentation equilibrium; self-association.

B1: DOM4-130-54 (other)
VL: DIQMTQSPSSLSASVGDRVTITCRASQDIYLNLDWYQQKPGKAPKLLINFGSELQSGVPSRFSGSGYGTDFTLTISSLQPEDFATYYCQPSFYFPYTFGQGTKVEIKR
notes: VK domain antibody (dAb) against IL-1R1
Molecule B1 showed an IC50 in the series with IL-1R1 of 0.28 nM.

B2: DOM4-130-202 (other)
VL: DIQMTQSPSSLSASVGDRVTISCRASQDIYLNLDWYQQKPGKAPKLLISFGSELQSGVPSRFSGSGYGTDFTLTISSLQPEDSATYYCQPSFYYPYTFGQGTKVEIKR
notes: VK dAb against IL-1R1, trypsin-selected variant of DOM4-130-54
In the series with IL-1R1, B2 yielded an IC50 of 0.254 nM.

B3: DOM4-130-201 (other)
VL: DIQMTQSPSSLSASVGDRVTITCRASQDIYLNLDWYQQKPGKAPKLLIKFGSELQSGVPSRFSGSGYGTDFTLTISNLQPEDFATYYCQPSFYFPYTFGQGTKVEIKW
notes: as for B2
B3 yielded an IC50 with IL-1R1 of 0.257 nM.

B4: DOM15-10 (other)
VL: DIQMTQSPSSLSASVGDRVTITCRASQWIGPELSWYQQKPGKAPKLLIYHTSILQSGVPSRFSGSGSGTDFTLTISSLQPEDFATYYCQQYMFQPRTFGQGTKVEIRR
notes: VK dAb against VEGF
Take B4: the Kd with recombinant human VEGF [1] was 23.6 nM. In addition, the EC50 with recombinant human VEGF [2] was 10.2 nM.

B5: DMS1546 (Fc fusion)
VL: DIQMTQSPSSLSASVGDRVTITCRASQWIGPELSWYQQKPGKAPKLLIYHTSILQSGVPSRFSGSGSGTDFTLTISSLQPEDFATYYCQQYMFQPRTFGQGTKVEIRR
modifications: disulfide-linked homodimer of this chain (bivalent dAb-Fc)
notes: dAb-Fc; also called DOM15-10 Fc fusion; not shown: TVAAPS linker and human IgG1 Fc
As to B5, the “Activity (nM), RBA assay” value with recombinant human VEGF [3] was 0.913 nM.

B6: DOM15-10-11 (other)
VL: DIQMTQSPSSLSASVGDRVTITCRASQWIGPELRWYQQKPGKAPKLLIYHTSILQSGVPSRFSGSGSGTDFTLTISSLQPEDFATYYCQQYMFQPMTFGQGTKVEIRG
notes: VK dAb against VEGF, trypsin-selected variant of DOM15-10
Take B6: the dissociation constant Kd with recombinant human VEGF [1] stood at 14.6 nM. For the same molecule, the EC50 with recombinant human VEGF [2] worked out at 3.58 nM.

B7: DMS1531 (Fc fusion)
VL: DIQMTQSPSSLSASVGDRVTITCRASQWIGPELRWYQQKPGKAPKLLIYHTSILQSGVPSRFSGSGSGTDFTLTISSLQPEDFATYYCQQYMFQPMTFGQGTKVEIRG
modifications: disulfide-linked homodimer of this chain (bivalent dAb-Fc)
notes: dAb-Fc; also called DOM15-10-11 Fc fusion; not shown: TVAAPS linker and human IgG1 Fc
With B7, in the series with recombinant human VEGF [3], the “Activity (nM), RBA assay” value worked out at 0.577 nM.

B8: DOM1h-131-202 (other)
VH: EVQLLESGGGLVQPGGSLRLSCAASGFTFAHETMVWVRQAPGKGLEWVSHIPPDGQDPFYADSVKGRFTISRDNSKNTLYLQMNSLRAEDTAVYYCALLPKRGPWFDYWGQGTLVTVSS
notes: human VH dAb against TNFR1; also called GSK1922567A
As to B8, the Kd in [4] is 1000 nM; in series [5], 1300 nM; in series [7] it was 0.55 nM. The same molecule returned an EC50 with TNFR1-FC fusion [6] of 0.11 nM. Further, the “IC50 (read off the curve)” value with TNFR1-FC fusion [8] and with TNFR1-FC fusion [9] was about 0.1 nM in each case.

B9: DOM1h-131-204 (other)
VH: EVQLSESGGGLVQPGGSLRLSCAASGFTFAHETMVWVRQAPGKGLEWVSHIPPDGQDPFYADSVKGRFTISRDNSKNTLYLQMNSLRAEDTAVYYCALLPNRGPWFDYWGQGTLVTVSS
Take B9: in the series with TNFR1 on MRC-5 cells, the “ND50 nM, MRC-5 cell-based assay (230307CE)” value (from here on “ND50 nM”) stood at 1.89 nM.

B10: DOM1h-131-206 (other)
VH: EVQLLESGGGLVQPGGSLRLSCAASGFTFAHETMVWVRQAPGKGLEWVSHIPPDGQDPFYADSVKGRFTISRDNSKNTLYLQMNSLRAEDTAVYHCALLPKRGPWFDYWGQGTLVTVSS
notes: human VH dAb against TNFR1; also called GSK1995057A
As to B10, the “ND50 nM” value with TNFR1 on MRC-5 cells was 0.71 nM. For the same molecule, the EC50 with TNFR1-FC fusion [6] turned out to be 0.07 nM. The equilibrium dissociation constant (Kd) in series [7] came to 0.47 nM; in [11], 360 µM. Also, the “IC50 (read off the curve)” value in the series with TNFR1-FC fusion [10] was about 0.07 nM.

B11: DOM1h-131-511 (other)
VH: EVQLLESGGGLVQPGGSLRLSCAASGFTFAHETMVWVRQAPGKGLEWVSHIPPVGQDPFYADSVKGRFTISRDNSKNTLYLQMNSLRAEDTAVYYCALLPKRGPWFDYWGQGTLVTVSS
notes: human VH domain antibody (dAb) against TNFR1; also called GSK1995056A
Consider B11, for which, in the series with TNFR1 on MRC-5 cells, the “ND50 nM” value worked out at 1.89 nM. The binding result in series [12] is reported as “binds”. The molecule further registered an EC50 with TNFR1-FC fusion [6] of 0.19 nM. The Kd in series [7] was 1.07 nM. The “IC50 (read off the curve)” value with TNFR1-FC fusion [10] is about 0.2 nM.

B12: DOM1h-131-203 (other)
VH: EVQLWESGGGLVQPGGSLRLSCAASGFTFAHETMVWVRQAPGKGLEWVSHIPPDGQDPFYADSVKGRFTISRDNSKNTLYLQMNSLRAEDTAVYYCALLPKRGPWIDYWGQGTLVTVSS
On to B12, for which the “ND50 nM” value with TNFR1 on MRC-5 cells was found to be 2.28 nM.

These data come from US20100260763A1 (DOMANTIS, published 2010).
